Experimental data: patent publication US20260008847A1 (ELPISCIENCE SUZHOU BIOPHARMA, published 2026)

B1: monoclonal antibody secreted by hybridoma clone 8G2F10 (antibody, V domains shown)
VH: QVQLQQSGAELAKPGASVKLSCKASGYTFTSYWMYWVKQRPGQGLEWIGHINPSSGYTKYNQKFKDKATLTADKSSSTAYMQLSSLTYEDSAVYYCARDPNWDNYWGQGTTLTVSS
VL: DIVMTQSHKFMSTSVGDRVSITCKASQDVSIAVAWYQQKPGQSPKLLIYSASYRYTGVPDRFTGSGSGTDFTFTISSVQAEDLAVYYCQQHYSTPYTFGGGTKLEIK
notes: Mouse hybridoma antibody
B2: hu043.04 (antibody, V domains shown)
VH: QVQLVQSGAEVKKPGASVKVSCKASGYTFTSYWMYWVRQAPGQGLEWIGHINPSSGYTKYNQKFKDRATLTADTSTSTAYMELSSLRSEDTAVYYCARDPNWDNYWGQGTTVTVSS
VL: DIQMTQSPSSLSASVGDRVTITCKASQDVSIAVAWYQQKPGKAPKLLIYSASYRYTGVPSRFSGSGSGTDFTFTISSLQPEDIATYYCQQHYSTPYTFGGGTKLEIK
notes: Humanized human IgG4 antibody with S228P in the constant region; also called hu043VH6 / hu043VL2
B3: hu043.01 (antibody, V domains shown)
VH: QVQLVQSGAEVKKPGASVKVSCKASGYTFTSYWMYWVRQAPGQGLEWIGHINPSSGYTKYNQKFKDRATLTADTSTSTAYMELSSLRSEDTAVYYCARDPNWDNYWGQGTTVTVSS
VL: DIVMTQSPSSLSASVGDRVSITCKASQDVSIAVAWYQQKPGKAPKLLIYSASYRYTGVPDRFSGSGSGTDFTFTISSLQPEDIATYYCQQHYSTPYTFGGGTKLEIK
notes: Humanized human IgG4 antibody with S228P in the constant region; also called hu043VH6 / hu043VL4
B4: hu043.02 (antibody, V domains shown)
VH: QVQLVQSGAEVKKPGASVKVSCKASGYTFTSYWMYWVRQAPGQGLEWIGHINPSSGYTKYNQKFKDRVTMTADTSTSTVYMELSSLRSEDTAVYYCARDPNWDNYWGQGTTVTVSS
VL: DIVMTQSPSSLSASVGDRVSITCKASQDVSIAVAWYQQKPGKAPKLLIYSASYRYTGVPDRFSGSGSGTDFTFTISSLQPEDIATYYCQQHYSTPYTFGGGTKLEIK
notes: Humanized human IgG4 antibody with S228P in the constant region; also called hu043VH7 / hu043VL4
B5: hu043.07 (antibody, V domains shown)
VH: QVQLVQSGAEVKKPGASVKVSCKASGYTFTSYWMYWVRQAPGQGLEWIGHINPSSGYTKYNQKFKDKATLTADKSTSTAYMELSSLRSEDTAVYYCARDPNWDNYWGQGTTVTVSS
VL: DIQMTQSPSSMSASVGDRVTITCKASQDVSIAVAWYQQKPGKAPKLLIYSASYRYTGVPSRFSGSGSGTDFTFTISSVQPEDIATYYCQQHYSTPYTFGGGTKLEIK
notes: Humanized human IgG4 antibody with S228P in the constant region; also called hu043VH9 / hu043VL1
B6: hu043.05 (antibody, V domains shown)
VH: QVQLVQSGAEVKKPGASVKVSCKASGYTFTSYWMYWVRQAPGQGLEWIGHINPSSGYTKYNQKFKDRVTMTADTSTSTVYMELSSLRSEDTAVYYCARDPNWDNYWGQGTTVTVSS
VL: DIQMTQSPSSLSASVGDRVTITCKASQDVSIAVAWYQQKPGKAPKLLIYSASYRYTGVPSRFSGSGSGTDFTFTISSLQPEDIATYYCQQHYSTPYTFGGGTKLEIK
notes: Humanized human IgG4 antibody with S228P in the constant region; also called hu043VH7 / hu043VL2
B7: hu043.03 (antibody, V domains shown)
VH: QVQLQQSGAEVKKPGASVKLSCKASGYTFTSYWMYWVRQRPGQGLEWIGHINPSSGYTKYNQKFKDRATLTADTSTSTAYMELSSLRSEDTAVYYCARDPNWDNYWGQGTTVTVSS
VL: DIVMTQSPSSLSASVGDRVSITCKASQDVSIAVAWYQQKPGKAPKLLIYSASYRYTGVPDRFSGSGSGTDFTFTISSLQPEDIATYYCQQHYSTPYTFGGGTKLEIK
notes: Humanized human IgG4 antibody with S228P in the constant region; also called hu043VH8 / hu043VL4
B8: hu043.08 (antibody, V domains shown)
VH: QVQLVQSGAEVKKPGASVKVSCKASGYTFTSYWMYWVRQAPGQGLEWIGHINPSSGYTKYNQKFKDKATLTADKSTSTAYMELSSLRSEDTAVYYCARDPNWDNYWGQGTTLTVSS
VL: DIQMTQSPSSMSASVGDRVTITCKASQDVSIAVAWYQQKPGKAPKLLIYSASYRYTGVPSRFSGSGSGTDFTFTISSVQPEDIATYYCQQHYSTPYTFGGGTKLEIK
notes: Humanized human IgG4 antibody with S228P in the constant region; also called hu043VH10 / hu043VL1
B9: hu043.06 (antibody, V domains shown)
VH: QVQLQQSGAEVKKPGASVKLSCKASGYTFTSYWMYWVRQRPGQGLEWIGHINPSSGYTKYNQKFKDRATLTADTSTSTAYMELSSLRSEDTAVYYCARDPNWDNYWGQGTTVTVSS
VL: DIQMTQSPSSLSASVGDRVTITCKASQDVSIAVAWYQQKPGKAPKLLIYSASYRYTGVPSRFSGSGSGTDFTFTISSLQPEDIATYYCQQHYSTPYTFGGGTKLEIK
notes: Humanized human IgG4 antibody with S228P in the constant region; also called hu043VH8 / hu043VL2

Key:
[1] = target: Human LILRB1 ECD recombinant protein with 6×His-tag (human) (UniProt Q8NHL6); test: ELISA: plate coated with LILRB1 ECD recombinant protein, antibody at 0.5 ug/mL (method of example 3.2.1); mean OD450 printed over the bar [continued) F]
[2] = target: Human LILRB5 ECD recombinant protein with 6×His-tag (human) (UniProt O75023); test: ELISA: plate coated with LILRB5 ECD recombinant protein, antibody at 0.5 ug/mL (method of example 3.2.1); mean OD450 printed over the bar [continued) I]
[3] = target: Human LILRB4 ECD recombinant protein with 6×His-tag (human) (UniProt Q8NHJ6); test: ELISA: plate coated with LILRB4 ECD recombinant protein, antibody at 0.5 ug/mL (method of example 3.2.1); mean OD450 printed over the bar [continued) H]
[4] = target: Human LILRB3 ECD recombinant protein with 6×His-tag (human) (UniProt O75022); test: ELISA: plate coated with LILRB3 ECD recombinant protein, antibody at 0.5 ug/mL (method of example 3.2.1); mean OD450 printed over the bar [continued) G]
[5] = target: Human LILRA4 ECD recombinant protein with 6×His-tag (human) (UniProt P59901); test: ELISA: plate coated with LILRA4 ECD recombinant protein, antibody at 0.5 ug/mL (method of example 3.2.1); mean OD450 printed over the bar [continued) D]
[6] = target: Human LILRA1 ECD recombinant protein with 6×His-tag (human) (UniProt O75019); test: ELISA: plate coated with LILRA1 ECD recombinant protein, antibody at 0.5 ug/mL (method of example 3.2.1); mean OD450 printed over the bar
[7] = target: 6×His-tagged human LILRB2 ECD recombinant protein (human) (UniProt Q8N423); test: ELISA: plate coated with 6xHis-tagged human LILRB2 ECD, antibody at 0.5 ug/mL, HRP detection antibody; mean OD450 printed over the bar
[8] = target: Human LILRA2 ECD recombinant protein with His-tag (human) (UniProt Q8N149); test: ELISA: plate coated with LILRA2 ECD recombinant protein, antibody at 0.5 ug/mL (method of example 3.2.1); mean OD450 printed over the bar [continued) B]
[9] = target: Human LILRA5 ECD recombinant protein with 6×His-tag (human) (UniProt A6NI73); test: ELISA: plate coated with LILRA5 ECD recombinant protein, antibody at 0.5 ug/mL (method of example 3.2.1); mean OD450 printed over the bar [continued) E]
[10] = target: Human LILRA3 ECD recombinant protein with 6×His-tag (human) (UniProt Q8N6C8); test: ELISA: plate coated with LILRA3 ECD recombinant protein, antibody at 0.5 ug/mL (method of example 3.2.1); mean OD450 printed over the bar [continued) C]
[11] = target: T1, 6×His-tagged human LILRB2 ECD recombinant protein (human, UniProt Q8N423 22-458, limits assumed); test: Bio-Layer Interferometry, hybridoma antibody on human LILRB2
T1 construct: Bought protein; not shown: 6×His-tag

[12] = target: T1, 6×His-tagged human LILRB2 ECD …; test: Octet, 1:1 model; column printed as 'ka (1/Ms)', heads of c4 and c5 are swapped
[13] = target: T2, Human LILRB2 stably expressed on EL4 cells (EL4/LILRB2) (human, UniProt Q8N423 22-597); test: FACS on EL4/LILRB2 cells
T2 construct: also called EL4-LILRB2 cells; cell membrane human LILRB2

[14] = target: T1, 6×His-tagged human LILRB2 ECD …; test: Octet, 1:1 model; column printed as 'kd (1/s)', heads of c4 and c5 are swapped
[15] = target: T1, 6×His-tagged human LILRB2 ECD …; test: Octet, 1:1 model
[16] = target: T2, Human LILRB2 stably expressed on EL4 …; test: competitive FACS, blockade of HLA-G binding to LILRB2 on cells
Method: The blocking activities were determined by quantitating the blockade of the ligands binding to EL4/LILRB2 cells.

[17] = target: T1, 6×His-tagged human LILRB2 ECD …; test: Biacore, 1:1 model
[18] = target: T1, 6×His-tagged human LILRB2 ECD …; test: Biacore, 1:1 model; column printed as 'kd (1/s)', heads of c4 and c5 are swapped
[19] = target: T1, 6×His-tagged human LILRB2 ECD …; test: Biacore, 1:1 model; column printed as 'ka (1/Ms)', heads of c4 and c5 are swapped

T2 sequence (Q8N423 22-597 limits assumed): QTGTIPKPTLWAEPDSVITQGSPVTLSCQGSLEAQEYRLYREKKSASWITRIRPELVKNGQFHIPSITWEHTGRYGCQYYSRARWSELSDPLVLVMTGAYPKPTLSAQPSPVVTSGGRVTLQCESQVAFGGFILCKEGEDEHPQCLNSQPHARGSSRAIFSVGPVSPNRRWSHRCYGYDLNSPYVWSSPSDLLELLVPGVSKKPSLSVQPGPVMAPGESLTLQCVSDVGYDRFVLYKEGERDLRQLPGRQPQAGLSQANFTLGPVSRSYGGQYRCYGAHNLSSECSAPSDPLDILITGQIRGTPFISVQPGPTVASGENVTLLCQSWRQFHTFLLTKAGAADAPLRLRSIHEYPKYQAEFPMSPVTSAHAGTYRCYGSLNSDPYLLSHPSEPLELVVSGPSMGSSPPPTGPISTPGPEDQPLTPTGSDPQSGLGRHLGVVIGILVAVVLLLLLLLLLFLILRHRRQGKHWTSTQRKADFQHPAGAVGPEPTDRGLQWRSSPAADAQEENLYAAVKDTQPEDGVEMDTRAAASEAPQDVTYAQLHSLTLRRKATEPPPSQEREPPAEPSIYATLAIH
T1 sequence (Q8N423 22-458 limits assumed): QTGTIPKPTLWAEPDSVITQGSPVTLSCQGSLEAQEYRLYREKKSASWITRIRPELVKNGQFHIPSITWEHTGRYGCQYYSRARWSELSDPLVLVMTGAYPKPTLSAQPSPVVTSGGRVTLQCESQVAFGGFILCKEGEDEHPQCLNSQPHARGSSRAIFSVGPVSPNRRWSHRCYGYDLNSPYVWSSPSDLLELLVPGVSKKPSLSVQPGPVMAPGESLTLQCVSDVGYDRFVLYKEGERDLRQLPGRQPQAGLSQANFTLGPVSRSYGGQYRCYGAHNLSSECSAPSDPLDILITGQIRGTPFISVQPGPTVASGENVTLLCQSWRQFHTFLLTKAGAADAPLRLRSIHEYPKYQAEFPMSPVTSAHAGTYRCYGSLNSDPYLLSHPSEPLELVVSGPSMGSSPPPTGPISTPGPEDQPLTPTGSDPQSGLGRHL
Human LILRA5 ECD recombinant protein with 6×His-tag (human), sequence (A6NI73 42-268 limits assumed, form in doubt): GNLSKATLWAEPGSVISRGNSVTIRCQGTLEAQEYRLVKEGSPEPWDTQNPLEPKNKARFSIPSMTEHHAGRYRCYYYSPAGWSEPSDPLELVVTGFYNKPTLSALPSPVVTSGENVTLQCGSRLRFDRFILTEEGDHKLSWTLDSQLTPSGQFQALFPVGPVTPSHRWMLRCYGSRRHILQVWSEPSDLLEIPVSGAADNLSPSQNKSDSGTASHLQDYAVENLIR
Human LILRA3 ECD recombinant protein with 6×His-tag (human), sequence (Q8N6C8 24-439 limits assumed, form in doubt): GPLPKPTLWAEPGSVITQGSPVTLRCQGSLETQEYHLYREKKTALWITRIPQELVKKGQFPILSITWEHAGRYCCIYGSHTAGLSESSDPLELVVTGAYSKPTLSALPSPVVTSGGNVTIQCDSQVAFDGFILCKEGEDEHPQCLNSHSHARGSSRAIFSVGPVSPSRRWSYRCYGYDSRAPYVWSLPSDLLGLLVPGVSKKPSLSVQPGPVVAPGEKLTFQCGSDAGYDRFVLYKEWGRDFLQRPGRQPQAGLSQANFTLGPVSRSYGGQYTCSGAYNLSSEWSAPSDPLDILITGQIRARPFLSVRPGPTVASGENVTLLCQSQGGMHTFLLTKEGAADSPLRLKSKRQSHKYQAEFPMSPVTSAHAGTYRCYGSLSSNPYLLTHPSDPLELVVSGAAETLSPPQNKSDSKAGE
Human LILRA2 ECD recombinant protein with His-tag (human), sequence (Q8N149 24-449 limits assumed): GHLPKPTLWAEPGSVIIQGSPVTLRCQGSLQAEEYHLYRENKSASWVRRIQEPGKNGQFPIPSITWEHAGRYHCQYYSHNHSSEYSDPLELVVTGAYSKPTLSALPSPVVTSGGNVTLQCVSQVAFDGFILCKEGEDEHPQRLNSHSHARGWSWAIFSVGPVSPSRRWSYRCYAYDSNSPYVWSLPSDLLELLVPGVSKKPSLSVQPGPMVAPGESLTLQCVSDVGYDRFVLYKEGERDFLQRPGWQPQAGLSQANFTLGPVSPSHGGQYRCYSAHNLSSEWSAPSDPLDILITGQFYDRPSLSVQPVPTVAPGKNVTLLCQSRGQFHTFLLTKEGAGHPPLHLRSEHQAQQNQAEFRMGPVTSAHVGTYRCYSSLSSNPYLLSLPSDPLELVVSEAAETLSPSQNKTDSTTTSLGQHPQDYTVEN
Human LILRA4 ECD recombinant protein with 6×His-tag (human), sequence (P59901 24-446 limits assumed): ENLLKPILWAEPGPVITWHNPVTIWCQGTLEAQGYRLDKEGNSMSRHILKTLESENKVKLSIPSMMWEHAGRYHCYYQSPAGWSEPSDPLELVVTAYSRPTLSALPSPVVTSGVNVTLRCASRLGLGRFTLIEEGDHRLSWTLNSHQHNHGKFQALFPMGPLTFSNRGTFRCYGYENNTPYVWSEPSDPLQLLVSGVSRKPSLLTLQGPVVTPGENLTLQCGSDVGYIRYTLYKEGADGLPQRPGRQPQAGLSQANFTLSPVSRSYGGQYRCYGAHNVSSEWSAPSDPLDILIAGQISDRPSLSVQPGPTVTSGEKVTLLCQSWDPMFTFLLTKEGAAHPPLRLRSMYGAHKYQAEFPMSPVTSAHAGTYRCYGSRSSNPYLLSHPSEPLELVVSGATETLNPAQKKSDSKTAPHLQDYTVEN
Human LILRB1 ECD recombinant protein with 6×His-tag (human), sequence (Q8NHL6 24-458 limits assumed): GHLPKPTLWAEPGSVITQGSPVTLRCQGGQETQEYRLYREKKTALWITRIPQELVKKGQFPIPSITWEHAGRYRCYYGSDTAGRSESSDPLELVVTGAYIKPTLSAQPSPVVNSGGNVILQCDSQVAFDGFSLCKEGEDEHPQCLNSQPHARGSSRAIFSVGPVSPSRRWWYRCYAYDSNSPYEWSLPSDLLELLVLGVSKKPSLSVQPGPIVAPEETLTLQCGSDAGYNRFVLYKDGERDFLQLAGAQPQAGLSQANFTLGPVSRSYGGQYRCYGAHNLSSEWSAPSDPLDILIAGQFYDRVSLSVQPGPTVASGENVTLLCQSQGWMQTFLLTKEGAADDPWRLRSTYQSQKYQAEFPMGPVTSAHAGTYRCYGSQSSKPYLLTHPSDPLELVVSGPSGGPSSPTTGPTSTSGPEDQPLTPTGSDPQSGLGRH
6×His-tagged human LILRB2 ECD recombinant protein (human), sequence (Q8N423 22-458 limits assumed): as the sequence (Q8N423 22-458 limits assumed) above
Human LILRA1 ECD recombinant protein with 6×His-tag (human), sequence (O75019 17-461 limits assumed): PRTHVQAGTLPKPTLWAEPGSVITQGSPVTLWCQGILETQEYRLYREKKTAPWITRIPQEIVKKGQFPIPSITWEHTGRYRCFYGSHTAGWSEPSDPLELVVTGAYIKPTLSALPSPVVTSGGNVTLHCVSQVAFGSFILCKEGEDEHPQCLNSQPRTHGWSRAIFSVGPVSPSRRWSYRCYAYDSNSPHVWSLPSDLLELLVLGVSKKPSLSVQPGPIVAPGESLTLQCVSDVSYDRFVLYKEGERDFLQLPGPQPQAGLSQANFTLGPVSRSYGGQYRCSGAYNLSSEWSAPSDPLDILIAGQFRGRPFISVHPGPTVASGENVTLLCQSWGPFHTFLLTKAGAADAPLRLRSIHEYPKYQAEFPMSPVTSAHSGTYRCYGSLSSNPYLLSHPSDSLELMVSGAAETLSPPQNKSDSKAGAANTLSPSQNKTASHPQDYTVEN
Human LILRB5 ECD recombinant protein with 6×His-tag (human), sequence (O75023 24-458 limits assumed): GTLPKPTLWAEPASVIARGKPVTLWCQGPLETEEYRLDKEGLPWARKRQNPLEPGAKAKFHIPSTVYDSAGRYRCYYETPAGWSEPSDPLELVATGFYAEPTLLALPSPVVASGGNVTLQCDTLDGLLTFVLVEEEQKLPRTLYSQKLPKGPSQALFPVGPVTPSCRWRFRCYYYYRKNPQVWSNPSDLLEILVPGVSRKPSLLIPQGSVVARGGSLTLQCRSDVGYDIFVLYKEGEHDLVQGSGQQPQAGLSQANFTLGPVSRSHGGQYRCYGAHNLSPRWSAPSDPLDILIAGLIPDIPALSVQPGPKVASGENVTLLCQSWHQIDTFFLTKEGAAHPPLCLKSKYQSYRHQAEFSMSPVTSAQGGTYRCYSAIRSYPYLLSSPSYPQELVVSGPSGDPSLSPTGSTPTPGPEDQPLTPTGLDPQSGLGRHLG

koff [12]	EC50 [13]	TOP MFI [13]	kon [14]	Kd [15]	IC50 [16]	TOP Blocking (%) [16]	also measured	Molecule
							OD450 [1]: 0.08; OD450 [2]: 0.08; OD450 [3]: 0.14; OD450 [4]: 0.08; OD450 [5]: 0.16; OD450 [6]: 0.15; OD450 [7]: 0.08; OD450 [8]: 0.07; OD450 [9]: 0.08; OD450 [10]: 0.08	hIgG4 iso (antibody)
							Kd [11]: 1.35 nM; koff [11]: 0.00139 s⁻¹; kon [11]: 1.04e+06 M⁻¹ s⁻¹	B1
0.00185 s⁻¹	0.43 nM	45000 MFI	488000 M⁻¹ s⁻¹	3.78 nM	0.11 nM	100%		B2
0.00164 s⁻¹	0.42 nM	45800 MFI	516000 M⁻¹ s⁻¹	3.19 nM	0.11 nM	100%		B3
0.00184 s⁻¹	0.35 nM	45700 MFI	517000 M⁻¹ s⁻¹	3.57 nM	0.1 nM	100%		B4
					0.19 nM	100%	Kd [17]: 1.68 nM; kon [18]: 2.25e+06 M⁻¹ s⁻¹; koff [19]: 0.00379 s⁻¹	B5
0.00199 s⁻¹	0.42 nM	45100 MFI	501000 M⁻¹ s⁻¹	3.9 nM	0.09 nM	100%		B6
0.00243 s⁻¹	0.41 nM	46300 MFI	466000 M⁻¹ s⁻¹	5.22 nM	0.1 nM	100%		B7
					0.19 nM	100%	Kd [17]: 1.71 nM; kon [18]: 2.21e+06 M⁻¹ s⁻¹; koff [19]: 0.00378 s⁻¹	B8
0.00186 s⁻¹	0.4 nM	45700 MFI	512000 M⁻¹ s⁻¹	3.63 nM	0.11 nM	100%		B9
